Reference: the supplement of paper PMC10724198
± gives the standard deviation of the averaged measurements.

Key:
Saccharomyces cerevisiae [1] = test: protein stability index of tFT-peptide fusion (C-terminal peptide) (PSI (0-1 scale)); higher = more stable (slower turnover)
Procedure: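 MPS profiling in S. cerevisiae of the tFT-X12 degron library: putative degron peptides plus stable controls, 12 aa, fused to the C-terminus of a sfGFP-mCherry timer. Cells are FACS-sorted into 8 mCherry/sfGFP bins and deep-sequenced. PSI runs from 0 (unstable) to 1 (stable). Backgrounds are wild type, das1Δ and doa10Δ at 30 °C, and wild type, das1Δ, cdc34-1 and cdc53-1 at 37 °C; 2-3 technical replicates each.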

Saccharomyces cerevisiae [2] = test: as above; details: genetic background: wild type; temperature: 30 C
[3] = genetic background: cdc34-1, temperature: 37 C
[4] = genetic background: cdc53-1, temperature: 37 C
[5] = genetic background: das1 deletion, temperature: 30 C
[6] = genetic background: das1 deletion, temperature: 37 C
[7] = genetic background: doa10 deletion, temperature: 30 C
[8] = genetic background: wild type, temperature: 30 C
[9] = genetic background: wild type, temperature: 37 C
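Further: PSI is a weighted mean of sequencing reads over stability bins, variants kept only with over 10 reads, mCherry proximal and sfGFP distal, peptide attached via GGGS linker.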

Sequence	protein stability index (Saccharomyces cerevisiae [1]; [3])	protein stability index (Saccharomyces cerevisiae [1]; [4])	protein stability index (Saccharomyces cerevisiae [1]; [5])	protein stability index (Saccharomyces cerevisiae [1]; [6])	protein stability index (Saccharomyces cerevisiae [1]; [7])	protein stability index (Saccharomyces cerevisiae [1]; [8])	protein stability index (Saccharomyces cerevisiae [1]; [9])	protein stability index (Saccharomyces cerevisiae [2])
ACSRKPIWVTWL	0.666 ± 0.057	0.747 ± 0.0079	0.648 ± 0.023	0.732 ± 0.016	0.259 ± 0.0057	0.276 ± 0.058	0.51 ± 0.031	0.35 ± 0.065
VECVCVVVVRRM	0.391 ± 0.0055	0.497 ± 0.03	0.313 ± 0.023	0.493 ± 0.01	0.266 ± 0.0088	0.31 ± 0.021	0.466 ± 0.021	0.351 ± 0.017
RRVRVVCVIVAA	0.286 ± 0.0078	0.373 ± 0.009	0.238 ± 0.041	0.4735 ± 0.0028	0.189 ± 0.0071	0.221 ± 0.03	0.443 ± 0.025	0.373 ± 0.071
ALLWEFVPCSVR	0.521 ± 0.032	0.52 ± 0.0073	0.354 ± 0.036	0.56 ± 0.0061	0.3287 ± 0.0015	0.375 ± 0.022	0.5347 ± 0.0023	0.453 ± 0.015
LFSFFVFFFLLD	0.358 ± 0.086	0.446 ± 0.0062	0.364 ± 0.044	0.522 ± 0.031	0.375 ± 0.005	0.37 ± 0.031	0.476 ± 0.02	0.435 ± 0.034
LNTVALIRIVVS	0.0601 ± 0.033	0.132 ± 0.015	0.18 ± 0.021	0.234 ± 0.0055	0.125 ± 0.015	0.137 ± 0.036	0.19 ± 0.008	0.236 ± 0.006
MWFFFICYFLSV	0.277 ± 0.0059	0.361 ± 0.034	0.246 ± 0.049	0.411 ± 0.015	0.262 ± 0.021	0.249 ± 0.02	0.369 ± 0.0076	0.263 ± 0.0072
TDVLLLQLLISV	0.202 ± 0.021	0.228 ± 0.059	0.225 ± 0.028	0.338 ± 0.018	0.184 ± 0.007	0.219 ± 0.032	0.316 ± 0.0075	0.311 ± 0.012
PPPAPPLSMPAP	0.647 ± 0.064	0.73 ± 0.027	0.665 ± 0.014	0.718 ± 0.026	0.671 ± 0.021	0.681 ± 0.022	0.6928 ± 0.0055	0.0173 ± 0.0038
SMGVLITYLVQV	0.399 ± 0.021	0.461 ± 0.012	0.324 ± 0.024	0.51 ± 0.015	0.25 ± 0.007	0.288 ± 0.033	0.452 ± 0.0061	0.45 ± 0.04
LLMWVLFDCHYS	0.39 ± 0.017	0.542 ± 0.034	0.318 ± 0.035	0.552 ± 0.011	0.306 ± 0.01	0.322 ± 0.023	0.535 ± 0.013	0.396 ± 0.012
LILLTFTLRVPV	0.192 ± 0.0027	0.381 ± 0.046	0.233 ± 0.02	0.4028 ± 0.0024	0.2056 ± 0.001	0.227 ± 0.026	0.362 ± 0.018	0.361 ± 0.034
FSFVVRMFFRIL	0.218 ± 0.009	0.266 ± 0.0039	0.39 ± 0.038	0.408 ± 0.022	0.0869 ± 0.019	0.0811 ± 0.015	0.0988 ± 0.0082	0.154 ± 0.014
SLARLRRICFNT	0.632 ± 0.042	0.685 ± 0.0072	0.648 ± 0.031	0.719 ± 0.023	0.254 ± 0.011	0.27 ± 0.042	0.469 ± 0.021	0.3604 ± 0.0024
ALVGEVLWFQLV	0.684 ± 0.039	0.7569 ± 0.006	0.651 ± 0.023	0.749 ± 0.013	0.317 ± 0.0039	0.357 ± 0.034	0.586 ± 0.029	0.471 ± 0.0021
LVYCWFAEYFLV	0.323 ± 0.043	0.561 ± 0.011	0.448 ± 0.027	0.586 ± 0.0069	0.0883 ± 0.016	0.106 ± 0.0044	0.0859 ± 0.017	0.169 ± 0.027
LPTVSRPGALIC	0.562 ± 0.016	0.689 ± 0.032	0.626 ± 0.033	0.69 ± 0.011	0.144 ± 0.0049	0.192 ± 0.02	0.34 ± 0.038	0.253 ± 0.013
LSRLIFKVSVLM	0.57 ± 0.0078	0.602 ± 0.0096	0.504 ± 0.026	0.5999 ± 0.0032	0.237 ± 0.032	0.231 ± 0.025	0.416 ± 0.038	0.445 ± 0.015
MRVYLVLWADSC	0.236 ± 0.034	0.345 ± 0.026	0.197 ± 0.015	0.361 ± 0.017	0.19 ± 0.015	0.184 ± 0.0039	0.337 ± 0.00094	0.247 ± 0.058
PHVSALSRDPES	0.698 ± 0.038	0.728 ± 0.0092	0.649 ± 0.021	0.7247 ± 0.0027	0.65 ± 0.025	0.662 ± 0.017	0.701 ± 0.016	0.716 ± 0.018

Sequence	protein stability index (Saccharomyces cerevisiae [1]; [3])	protein stability index (Saccharomyces cerevisiae [1]; [4])	protein stability index (Saccharomyces cerevisiae [1]; [5])	protein stability index (Saccharomyces cerevisiae [1]; [6])	protein stability index (Saccharomyces cerevisiae [1]; [7])	protein stability index (Saccharomyces cerevisiae [1]; [8])	protein stability index (Saccharomyces cerevisiae [1]; [9])	protein stability index (Saccharomyces cerevisiae [2])
GRGFVLSVAVVA	0.404 ± 0.011	0.453 ± 0.031	0.395 ± 0.034	0.502 ± 0.0094	0.363 ± 0.0089	0.395 ± 0.021	0.467 ± 0.0049	0.435 ± 0.012
TYHRSYLLATVV	0.49857 ± 0.00019	0.55 ± 0.08	0.378 ± 0.028	0.543 ± 0.016	0.181 ± 0.0023	0.224 ± 0.024	0.331 ± 0.00026	0.314 ± 0.025
YSMLGKLVRLVT	0.553 ± 0.05	0.662 ± 0.02	0.512 ± 0.025	0.63036 ± 0.00022	0.164 ± 0.004	0.2 ± 0.013	0.374 ± 0.015	0.285 ± 0.033
WFFRCLFLLSLF	0.457 ± 0.0083	0.544 ± 0.028	0.517 ± 0.019	0.601 ± 0.011	0.188 ± 0.015	0.178 ± 0.026	0.23 ± 0.025	0.202 ± 0.034
RCLHTSVFLIFP	0.484 ± 0.012	0.488 ± 0.038	0.476 ± 0.038	0.604 ± 0.021	0.652 ± 0.026	0.488 ± 0.03	0.54 ± 0.008	0.459 ± 0.03
CVCLWCFLVWAR	0.307 ± 0.018	0.391 ± 0.029	0.259 ± 0.025	0.4581 ± 0.0023	0.259 ± 0.013	0.246 ± 0.027	0.436 ± 0.017	0.384 ± 0.016
STNMDNRIRTLA	0.659 ± 0.011	0.714 ± 0.012	0.638 ± 0.031	0.72 ± 0.013	0.311 ± 0.0059	0.356 ± 0.023	0.556 ± 0.017	0.431 ± 0.0013
PWWDALLRARVC	0.429 ± 0.033	0.6 ± 0.054	0.435 ± 0.021	0.625 ± 0.019	0.103 ± 0.013	0.115 ± 0.022	0.159 ± 0.0039	0.163 ± 0.025
LSSRGGRCRRLV	0.714 ± 0.059	0.727 ± 0.028	0.652 ± 0.016	0.7555 ± 0.0039	0.321 ± 0.0092	0.37 ± 0.013	0.588 ± 0.017	0.481 ± 0.037
PLRKYLRHLLSL	0.59822 ± 0.00032	0.7453 ± 0.0022	0.647 ± 0.022	0.735 ± 0.036	0.1635 ± 0.0013	0.159 ± 0.012	0.285 ± 0.0041	0.218 ± 0.055
DLRRYRTLIPCK	0.38 ± 0.014	0.425 ± 0.023	0.288 ± 0.034	0.4805 ± 0.0034	0.2277 ± 0.00047	0.275 ± 0.048	0.481 ± 0.038	0.447 ± 0.034
AFLLVLFCCVSC	0.241 ± 0.044	0.258 ± 0.0057	0.252 ± 0.023	0.3459 ± 0.0017	0.229 ± 0.0086	0.225 ± 0.023	0.303 ± 0.01	0.298 ± 0.018
PHFDLLLCLSLN	0.625 ± 0.026	0.753 ± 0.057	0.676 ± 0.049	0.718 ± 0.018	0.248 ± 0.032	0.257 ± 0.033	0.521 ± 0.016	0.366 ± 0.0045
ALRGLWFPFSCL	0.66 ± 0.023	0.765 ± 0.0018	0.68 ± 0.024	0.8093 ± 0.0029	0.168 ± 0.032	0.193 ± 0.028	0.283 ± 0.01	0.393 ± 0.022
VRWLVFFLFLFG	0.501 ± 0.011	0.481 ± 0.013	0.406 ± 0.023	0.555 ± 0.0072	0.322 ± 0.0038	0.327 ± 0.022	0.497 ± 0.016	0.466 ± 0.074
WLWFVGCLAAPL	0.63 ± 0.032	0.662 ± 0.066	0.529 ± 0.024	0.6316 ± 0.001	0.523 ± 0.021	0.536 ± 0.04	0.5957 ± 0.0016	0.541 ± 0.07
VCYLMRSLTFAY	0.4968 ± 0.0039	0.546 ± 0.006	0.345 ± 0.029	0.494 ± 0.0096	0.319 ± 0.021	0.337 ± 0.024	0.4733 ± 0.0016	0.45 ± 0.0099
CPMFVKFFFCLY	0.448 ± 0.027	0.462 ± 0.011	0.465 ± 0.036	0.508 ± 0.019	0.479 ± 0.013	0.41 ± 0.021	0.481 ± 0.0055	0.405 ± 0.024
PHPPRPPCPPIL	0.673 ± 0.041	0.736 ± 0.015	0.674 ± 0.0068	0.721 ± 0.0074	0.699 ± 0.037	0.678 ± 0.015	0.699 ± 0.0093	0.74 ± 0.019
